Measured values reported in patent publication US20250074942A1, “COMPOSITIONS AND METHODS FOR COVALENT PEPTIDE-BASED MODULATORS OF HLA-E” (Calico Life Sciences LLC, priority 2022, published 2025).
Where no end group is shown, it is not given here. The star is where a group is joined. FITC = O=C1OC2(c3ccc(O)cc3Oc3cc(O)ccc32)c2ccc(NC(=S)*)cc21; mSF = 3-benzenesulfonyl fluoride, O=S(=O)(F)c1cccc(*)c1

Target: T1, HLA-E (Homo sapiens, UniProt P13747)
T1 construct: [HLAE(hu)(22-305)]-Avitag]; made in house
Experiment: Binding to HLA-E by Fluorescence Polarization (FP)
Conditions: Table 18
Method: This example describes the analysis of binding of modified VL9 based peptides to HLA-E by Fluorescence Polarization (FP).
Briefly, proteins and VL9 or Qdm derived peptides were produced as described in EXAMPLE 2 and EXAMPLE 3 and binding to HLA-E was measured with Fluorescence Polarization.

Row | Substance | FP result
1 | ALCAPRLCL (cysteine pairing not given here) [Peptide P21] | Binding
2 | AMCGALCLF (cysteine pairing not given here) [Peptide P32] | Binding
3 | Ala-Leu-Cys-Ala-Pro-Arg-Leu-Cys-Leu-Gly-Gly-Lys(FITC) (ALCAPRLCLGGK(FITC); cysteine pairing not given here) [P21(FITC)] | Binding
4 | Ala-Leu-Cys-Arg-Trp-Arg-Cys-Leu-Tyr-Gly-Gly-Lys(FITC) (ALCRWRCLYGGK(FITC); cysteine pairing not given here) [P28(FITC)] | Binding
5 | Ala-Leu-Cys-Trp-Arg-Val-Pro-Cys-Thr (ALCWRVPCT-NH2; cysteine pairing not given here) [Peptide P20] | Binding
6 | Ala-Leu-Cys-Trp-Arg-Val-Pro-Cys-Thr-Gly-Gly-Lys(FITC) (H-ALCWRVPCTGGK(FITC)-NH2; cysteine pairing not given here) [P20(FITC)] | Binding
7 | Ala-Leu-Cys-Trp-His-Val-Pro-Cys-Gln-Gly-Gly-Lys(FITC) (ALCWHVPCQGGK(FITC); cysteine pairing not given here) [P23(FITC)] | Binding
8 | Ala-Met-Cys-Gly-Ala-Leu-Cys-Leu-Phe-Gly-Gly-Lys(FITC) (AMCGALCLFGGK(FITC); cysteine pairing not given here) [P32(FITC)] | Binding
9 | Ala-Met-Cys-Gly-Pro-Arg-Cys-Leu-Trp-Gly-Gly-Lys(FITC) (AMCGPRCLWGGK(FITC); cysteine pairing not given here) [P1(FITC)] | Binding
10 | Val-Met-Ala-Pro-Lys(FITC)-Thr-Leu-Phe-Leu (VMAPK(FITC)TLFL) [VL9—5Lys(FITC)] | Exchange

Target: T2, CD94/NKG2A binding to HLA-E (Homo sapiens, UniProt P13747)
T2 construct: [HLAE(hu)(22-305)]-Avitag]; made in house
Experiment: Biolayer interferometry (BLI): inhibition of CD94/NKG2A binding to peptide-loaded HLA-E
Conditions: BLI after a 2 h incubation of [HLA-E+VL9] with the electrophilic peptide
Method: Proteins were produced as described in EXAMPLE 2 and peptides were synthesized as described in EXAMPLE 3.
BLI was performed on a ForteBio Octet Red96e instrument. All proteins were diluted in 1× Kinetic Buffer (10× Kinetic buffer, Sartorius 181105) diluted in 1×PBS. A Blocking Buffer step was introduced to lower non-specific binding to the streptavidin (SA) tips by diluting 5% bovine serum albumin (BSA) and 20 μg/mL Biocytin (Sigma B4261) in 1× Kinetic Buffer. Refolded and biotinylated [HLA-E+VL9] complexes were loaded onto SA biosensors (Forte 18-5019) at ˜5 μg/ml (100 nM) with the following steps: 60 sec baseline in 1× Kinetic Buffer, 180 sec loading, 60 sec blocking in Blocking Buffer and 60 sec baseline in 1× Kinetic Buffer, all at 25° C. and 1000 rpm. hSCD and oaFC-hSCD binding to immobilized HLA-E/B2M complexes was monitored at 200 nM by a 90 sec association step, followed by a 120 sec dissociation step. Data correction was performed as follows: first, aligning the data to the average of the last baseline step on the y-axis; second, by aligning the data to the dissociation step for inter-step correction; and third by filtering the data using Savitzky-Golay Filtering.
This example describes the analysis of inhibition of CD94-NKG2A binding to HLA-E by exemplary modified peptides by bio-layer interferometry (BLI).
Briefly, proteins and VL9 or Qdm derived peptides were produced as described in EXAMPLE 2 and EXAMPLE 3. BLI measurements to determine inhibition were performed as described in EXAMPLE 4.

Row | Substance | able to reduce the binding of CD94-NKG2A to HLA-E (in words)
11 | NH2-Val-Met-Ala-Pro-Arg-Thr-Leu-Cys(mSF)-Leu-OH (H-VMAPRTLC(mSF)L-OH; SMILES CSCC[C@H](NC(=O)[C@@H](N)C(C)C)C(=O)N[C@@H](C)C(=O)N1CCC[C@H]1C(=O)N[C@@H](CCCNC(=N)N)C(=O)N[C@H](C(=O)N[C@@H](CC(C)C)C(=O)N[C@@H](CSc1cccc(S(=O)(=O)F)c1)C(=O)N[C@@H](CC(C)C)C(=O)O)[C@@H](C)O) [VL9—8Cys(mSF)] | not

Same assay, conditions: BLI, CD94-NKG2A 200 nM

Row | inhibition of CD94/NKG2A binding (in words) | Substance
12 | no inhibition of binding | NH2-Cha-hAr-Ala-Leu-hAr-Gln-Met-Mff-hAr-OH [Peptide B5.scrambled]

Same assay, conditions: Table 13; inhibition of CD94-NKG2A binding to HLA-E; BLOD = below the limit of detection

Row | BLI result | Substance
13 | inhibition | hAr-Nle-hAr-Gln-Lys(CUM)-Ala-Cha-hAr-Leu [B9_5Lys(CUM)]
14 | inhibition | hAr-Nle-hAr-Gln-Lys(DOTA)-Ala-Cha-hAr-Leu [B9_5Lys(DOTA)]
15 | inhibition | hAr-Nle-hAr-Gln-Lys(FITC)-Ala-Cha-hAr-Leu [B9_5Lys(FITC)]
16 | inhibition | hAr-Nle-hAr-Gln-Lys(ibu)-Ala-Cha-hAr-Leu [B9_5Lys(ibu)]
17 | inhibition | hAr-Nle-hAr-Gln-Mff-Ala-Cha-Lys(ibu)-Leu [B9_8Lys(ibu)]
18 | inhibition | hAr-Nle-hAr-Gln-Mff-Ala-Cha-hAr-Leu-Leu-Pro-Glu-Thr-Gly-Gly [Peptide B9_LPETGG]

Row | Substance | BLI result
19 | Lys(TAMRA)-Nle-hAr-Gln-Mff-Ala-Cha-hAr-Leu [B9_1Lys(TAMRA)] | inhibition
20 | NH2-Val-Met-Ala-Pro-Arg-Thr-Leu-Cys(mSF)-Leu-OH (H-VMAPRTLC(mSF)L-OH; SMILES CSCC[C@H](NC(=O)[C@@H](N)C(C)C)C(=O)N[C@@H](C)C(=O)N1CCC[C@H]1C(=O)N[C@@H](CCCNC(=N)N)C(=O)N[C@H](C(=O)N[C@@H](CC(C)C)C(=O)N[C@@H](CSc1cccc(S(=O)(=O)F)c1)C(=O)N[C@@H](CC(C)C)C(=O)O)[C@@H](C)O) [VL9—8Cys(mSF)] | inhibition
21 | hAr-Nle-hAr-Gln-Lys(TAMRA)-Ala-Cha-hAr-Leu [B9_5Lys(TAMRA)] | inhibition
22 | hAr-Nle-hAr-Gln-Mff-Ala-Cha-Lys(TAMRA)-Leu [B9_8Lys(TAMRA)] | inhibition

Same assay, conditions: Table 15, peptides with additional amino acids at the N-terminus; BLOD = below the limit of detection

Row | BLI result | Substance
23 | inhibition | Gly-hAr-Nle-hAr-Gln-Mff-Ala-Cha-hAr-Leu [Peptide G1_B9]

Target: T1, HLA-E
Experiment: Cross-linking of electrophilic peptides with [HLA-E+VL9], covalently bound HLA-E by LC-MS
Assay type: binding
Conditions: peptide in 10-fold excess with [HLA-E+VL9], 4 h at 37° C.
Method: The Cys peptide variants were equipped with a mSF warhead in a Pd-mediated coupling using Pd oxidative addition complex 1 (FIGS. 6A and 6B) X* indicating position functionalized with the electrophilic warhead). Electrophilic analogs of VL9 were subjected to cross-linking reactions in a 10-fold excess with [HLA-E+VL9] for 4 h at 37° C., and the amount of covalently bound HLA-E was determined by LC-MS as described in EXAMPLE 4.
Briefly, crosslinking reactions were performed as described in EXAMPLE 5.

Row | Substance | cross-linking with HLA-E (in words) | amount of covalently bound (cross-linked) HLA-E [%]
24 | NH2-Cys(mSF)-Met-Ala-Pro-Arg-Thr-Leu-Phe-Leu-OH (H-C(mSF)MAPRTLFL-OH; SMILES CSCC[C@H](NC(=O)[C@@H](N)CSc1cccc(S(=O)(=O)F)c1)C(=O)N[C@@H](C)C(=O)N1CCC[C@H]1C(=O)N[C@@H](CCCNC(=N)N)C(=O)N[C@H](C(=O)N[C@@H](CC(C)C)C(=O)N[C@@H](Cc1ccccc1)C(=O)N[C@@H](CC(C)C)C(=O)O)[C@@H](C)O) [VL9—1Cys(mSF)] | no or only trace amounts of cross-linking | 
25 | NH2-Val-Cys(mSF)-Ala-Pro-Arg-Thr-Leu-Phe-Leu-OH (H-VC(mSF)APRTLFL-OH; SMILES CC(C)C[C@H](NC(=O)[C@H](Cc1ccccc1)NC(=O)[C@H](CC(C)C)NC(=O)[C@@H](NC(=O)[C@H](CCCNC(=N)N)NC(=O)[C@@H]1CCCN1C(=O)[C@H](C)NC(=O)[C@H](CSc1cccc(S(=O)(=O)F)c1)NC(=O)[C@@H](N)C(C)C)[C@@H](C)O)C(=O)O) [VL9—2Cys(mSF)] | no or only trace amounts of cross-linking | 
26 | NH2-Val-Met-Ala-Cys(mSF)-Arg-Thr-Leu-Phe-Leu-OH (H-VMAC(mSF)RTLFL-OH; SMILES CSCC[C@H](NC(=O)[C@@H](N)C(C)C)C(=O)N[C@@H](C)C(=O)N[C@@H](CSc1cccc(S(=O)(=O)F)c1)C(=O)N[C@@H](CCCNC(=N)N)C(=O)N[C@H](C(=O)N[C@@H](CC(C)C)C(=O)N[C@@H](Cc1ccccc1)C(=O)N[C@@H](CC(C)C)C(=O)O)[C@@H](C)O) [VL9—4Cys(mSF)] |  | 36
27 | NH2-Val-Met-Ala-Pro-Arg-Cys(mSF)-Leu-Phe-Leu-OH (H-VMAPRC(mSF)LFL-OH; SMILES CSCC[C@H](NC(=O)[C@@H](N)C(C)C)C(=O)N[C@@H](C)C(=O)N1CCC[C@H]1C(=O)N[C@@H](CCCNC(=N)N)C(=O)N[C@@H](CSc1cccc(S(=O)(=O)F)c1)C(=O)N[C@@H](CC(C)C)C(=O)N[C@@H](Cc1ccccc1)C(=O)N[C@@H](CC(C)C)C(=O)O) [VL9—6Cys(mSF)] | no or only trace amounts of cross-linking | 
28 | NH2-Val-Met-Ala-Pro-Arg-Thr-Cys(mSF)-Phe-Leu-OH (H-VMAPRTC(mSF)FL-OH; SMILES CSCC[C@H](NC(=O)[C@@H](N)C(C)C)C(=O)N[C@@H](C)C(=O)N1CCC[C@H]1C(=O)N[C@@H](CCCNC(=N)N)C(=O)N[C@H](C(=O)N[C@@H](CSc1cccc(S(=O)(=O)F)c1)C(=O)N[C@@H](Cc1ccccc1)C(=O)N[C@@H](CC(C)C)C(=O)O)[C@@H](C)O) [VL9—7Cys(mSF)] |  | 22
29 | NH2-Val-Met-Ala-Pro-Arg-Thr-Leu-Cys(mSF)-Leu-OH (H-VMAPRTLC(mSF)L-OH; SMILES CSCC[C@H](NC(=O)[C@@H](N)C(C)C)C(=O)N[C@@H](C)C(=O)N1CCC[C@H]1C(=O)N[C@@H](CCCNC(=N)N)C(=O)N[C@H](C(=O)N[C@@H](CC(C)C)C(=O)N[C@@H](CSc1cccc(S(=O)(=O)F)c1)C(=O)N[C@@H](CC(C)C)C(=O)O)[C@@H](C)O) [VL9—8Cys(mSF)] |  | 87
30 | NH2-Val-Met-Ala-Pro-Arg-Thr-Leu-Phe-Cys(mSF)-OH (H-VMAPRTLFC(mSF)-OH; SMILES CSCC[C@H](NC(=O)[C@@H](N)C(C)C)C(=O)N[C@@H](C)C(=O)N1CCC[C@H]1C(=O)N[C@@H](CCCNC(=N)N)C(=O)N[C@H](C(=O)N[C@@H](CC(C)C)C(=O)N[C@@H](Cc1ccccc1)C(=O)N[C@@H](CSc1cccc(S(=O)(=O)F)c1)C(=O)O)[C@@H](C)O) [VL9—9Cys(mSF)] | no or only trace amounts of cross-linking | 
31 | NH2-Val-Met-Ala-Pro-Cys(mSF)-Thr-Leu-Phe-Leu-OH (H-VMAPC(mSF)TLFL-OH; SMILES CSCC[C@H](NC(=O)[C@@H](N)C(C)C)C(=O)N[C@@H](C)C(=O)N1CCC[C@H]1C(=O)N[C@@H](CSc1cccc(S(=O)(=O)F)c1)C(=O)N[C@H](C(=O)N[C@@H](CC(C)C)C(=O)N[C@@H](Cc1ccccc1)C(=O)N[C@@H](CC(C)C)C(=O)O)[C@@H](C)O) [VL9—5Cys(mSF)] | no or only trace amounts of cross-linking | 
32 | NH2-Val-Met-Cys(mSF)-Pro-Arg-Thr-Leu-Phe-Leu-OH (H-VMC(mSF)PRTLFL-OH; SMILES CSCC[C@H](NC(=O)[C@@H](N)C(C)C)C(=O)N[C@@H](CSc1cccc(S(=O)(=O)F)c1)C(=O)N1CCC[C@H]1C(=O)N[C@@H](CCCNC(=N)N)C(=O)N[C@H](C(=O)N[C@@H](CC(C)C)C(=O)N[C@@H](Cc1ccccc1)C(=O)N[C@@H](CC(C)C)C(=O)O)[C@@H](C)O) [VL9—3Cys(mSF)] |  | 73
